Experimental data taken from patent US9549967B2, “Regulation of sodium channels by PLUNC proteins” (The University of North Carolina at Chapel Hill, priority 2009, dated 2017).

How the values were obtained:
Type in all cases: cell-based
[1] = target: T1, ENaC containing the βS518C mutant (Rattus norvegicus, UniProt P37089+P37090+P37091, S518C); experiment: Oocyte current of ENaC containing the βS518C mutant with MTSET; details: SPLUNC1 coexpression, n=6
T1 construct: expressed in transfected cells; host or cells: Xenopus oocytes
T1 sequence (P37089 1-698): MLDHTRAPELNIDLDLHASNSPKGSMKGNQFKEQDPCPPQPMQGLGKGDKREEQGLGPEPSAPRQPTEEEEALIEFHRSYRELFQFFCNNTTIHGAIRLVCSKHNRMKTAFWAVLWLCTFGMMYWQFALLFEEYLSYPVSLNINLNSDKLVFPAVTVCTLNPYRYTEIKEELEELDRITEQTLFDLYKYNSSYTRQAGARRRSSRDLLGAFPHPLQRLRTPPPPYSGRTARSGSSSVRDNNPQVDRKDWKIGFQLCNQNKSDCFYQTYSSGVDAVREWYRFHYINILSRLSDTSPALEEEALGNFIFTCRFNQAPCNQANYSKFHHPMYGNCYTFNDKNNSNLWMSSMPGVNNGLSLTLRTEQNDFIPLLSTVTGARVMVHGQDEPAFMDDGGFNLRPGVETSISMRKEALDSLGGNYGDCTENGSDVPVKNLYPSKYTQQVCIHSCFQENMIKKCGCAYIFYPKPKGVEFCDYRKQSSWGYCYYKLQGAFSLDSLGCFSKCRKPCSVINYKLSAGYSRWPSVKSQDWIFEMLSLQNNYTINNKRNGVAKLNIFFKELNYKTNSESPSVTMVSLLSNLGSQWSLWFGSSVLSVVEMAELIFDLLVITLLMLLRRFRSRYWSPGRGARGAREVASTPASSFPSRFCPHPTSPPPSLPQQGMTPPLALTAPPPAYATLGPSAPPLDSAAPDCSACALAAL
T1 sequence (P37090 1-638 S518C): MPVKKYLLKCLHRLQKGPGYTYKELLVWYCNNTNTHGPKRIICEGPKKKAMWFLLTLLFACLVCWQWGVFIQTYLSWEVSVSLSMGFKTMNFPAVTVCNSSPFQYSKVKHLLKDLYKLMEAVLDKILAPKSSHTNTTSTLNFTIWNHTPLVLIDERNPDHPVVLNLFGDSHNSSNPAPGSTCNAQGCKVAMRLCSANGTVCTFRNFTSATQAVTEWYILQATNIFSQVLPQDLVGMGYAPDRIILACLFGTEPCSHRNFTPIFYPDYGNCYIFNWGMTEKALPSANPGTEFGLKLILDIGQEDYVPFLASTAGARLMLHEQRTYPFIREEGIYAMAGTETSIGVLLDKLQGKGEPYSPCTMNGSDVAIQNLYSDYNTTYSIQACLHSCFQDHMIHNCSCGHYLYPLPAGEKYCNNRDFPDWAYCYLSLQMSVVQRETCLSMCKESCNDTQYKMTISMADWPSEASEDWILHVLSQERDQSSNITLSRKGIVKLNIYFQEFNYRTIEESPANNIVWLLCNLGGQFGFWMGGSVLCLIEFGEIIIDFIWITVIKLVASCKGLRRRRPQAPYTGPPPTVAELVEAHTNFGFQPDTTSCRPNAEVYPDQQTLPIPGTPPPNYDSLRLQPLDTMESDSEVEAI
T1 sequence (P37091 1-650): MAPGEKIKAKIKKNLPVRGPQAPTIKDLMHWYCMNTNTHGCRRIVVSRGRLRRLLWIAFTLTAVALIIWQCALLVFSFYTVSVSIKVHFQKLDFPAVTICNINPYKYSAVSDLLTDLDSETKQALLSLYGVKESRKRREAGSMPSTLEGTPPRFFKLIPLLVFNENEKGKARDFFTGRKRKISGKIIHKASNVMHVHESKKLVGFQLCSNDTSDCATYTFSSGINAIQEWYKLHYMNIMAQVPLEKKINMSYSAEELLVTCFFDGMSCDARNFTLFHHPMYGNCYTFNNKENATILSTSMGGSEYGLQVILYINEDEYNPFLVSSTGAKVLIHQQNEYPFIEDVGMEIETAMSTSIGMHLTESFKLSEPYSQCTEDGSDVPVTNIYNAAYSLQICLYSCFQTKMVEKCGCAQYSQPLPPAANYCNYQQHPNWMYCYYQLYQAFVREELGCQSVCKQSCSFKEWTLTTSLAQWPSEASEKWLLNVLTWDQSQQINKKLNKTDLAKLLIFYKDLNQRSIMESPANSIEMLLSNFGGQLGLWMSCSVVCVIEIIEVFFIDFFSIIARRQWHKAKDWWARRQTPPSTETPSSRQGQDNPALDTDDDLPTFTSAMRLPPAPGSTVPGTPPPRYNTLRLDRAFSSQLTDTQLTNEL
Method: (§1) Oocyte studies. Xenopus laevis oocytes were harvested and injected as described (Donaldson, et al., J. Biol. Chem. 277:8338 (2002)). Defolliculated healthy stage V-VI oocytes were injected with 0.3 ng of cRNA of each ENaC subunit. Injected oocytes were kept in modified Barth's saline (in mM: 88 NaCl, 1 KCl, 2.4 NaHCO3, 0.3 Ca(NO3)2, 0.41 CaCl2, 0.82 MgSO4, and 15 HEPES, adjusted to pH 7.35 with Tris). Oocytes were studied 24 hr after injection using the two electrode voltage clamp technique as previously described (Donaldson, et al., J. Biol. Chem. 277:8338 (2002)). Oocytes were clamped at a holding potential of […]. The change in amiloride-sensitive whole cell current as an indicator of ENaC activity was determined by subtracting the corresponding current value measured in the presence of 10 μM amiloride from that measured before the application of amiloride.
The effect of SPLUNC1 on the number of ENaC channels in the plasma membrane was tested by expressing SPLUNC1 and αENaC in Xenopus oocytes. After surface biotinylation of αENaC, total lysate was prepared and lysate from 3-4 eggs was separated on a 10% gel.

[2] = target: T2, CFTR (Homo sapiens, UniProt P13569); experiment: CFTR activity in Xenopus oocytes co-expressing CFTR and β2 adrenergic receptor; details: after 10 μM isoproterenol
T2 construct: expressed in transfected cells; host or cells: Xenopus laevis oocytes
Method: as §1
In both cases, we co-expressed CFTR with the β2 adrenergic receptor (β2AR) which can be stimulated with isoproterenol to raise cAMP and stimulate CFTR (Uezono et al., Receptors Channels 1:233 (1993)).

[3] = test system: serine proteases; experiment: Endogenous protease activity (BGAR-MCA cleavage) on mucosal surfaces of human bronchial epithelial cultures
Method: For cell-free assays, reactions were carried out in 50 μl Ringer in a 96 well plate format with 100 μM BGAR-MCA. To measure endogenous protease activity in human bronchial epithelial cultures, 30 μl Ringer with 100 μM BGAR-MCA were placed directly onto the mucosal surfaces of human bronchial epithelial cultures grown on 12 mm T-clear inserts and the cultures were assayed in 12 well plates.

T2 sequence (P13569 whole entry, species assumed): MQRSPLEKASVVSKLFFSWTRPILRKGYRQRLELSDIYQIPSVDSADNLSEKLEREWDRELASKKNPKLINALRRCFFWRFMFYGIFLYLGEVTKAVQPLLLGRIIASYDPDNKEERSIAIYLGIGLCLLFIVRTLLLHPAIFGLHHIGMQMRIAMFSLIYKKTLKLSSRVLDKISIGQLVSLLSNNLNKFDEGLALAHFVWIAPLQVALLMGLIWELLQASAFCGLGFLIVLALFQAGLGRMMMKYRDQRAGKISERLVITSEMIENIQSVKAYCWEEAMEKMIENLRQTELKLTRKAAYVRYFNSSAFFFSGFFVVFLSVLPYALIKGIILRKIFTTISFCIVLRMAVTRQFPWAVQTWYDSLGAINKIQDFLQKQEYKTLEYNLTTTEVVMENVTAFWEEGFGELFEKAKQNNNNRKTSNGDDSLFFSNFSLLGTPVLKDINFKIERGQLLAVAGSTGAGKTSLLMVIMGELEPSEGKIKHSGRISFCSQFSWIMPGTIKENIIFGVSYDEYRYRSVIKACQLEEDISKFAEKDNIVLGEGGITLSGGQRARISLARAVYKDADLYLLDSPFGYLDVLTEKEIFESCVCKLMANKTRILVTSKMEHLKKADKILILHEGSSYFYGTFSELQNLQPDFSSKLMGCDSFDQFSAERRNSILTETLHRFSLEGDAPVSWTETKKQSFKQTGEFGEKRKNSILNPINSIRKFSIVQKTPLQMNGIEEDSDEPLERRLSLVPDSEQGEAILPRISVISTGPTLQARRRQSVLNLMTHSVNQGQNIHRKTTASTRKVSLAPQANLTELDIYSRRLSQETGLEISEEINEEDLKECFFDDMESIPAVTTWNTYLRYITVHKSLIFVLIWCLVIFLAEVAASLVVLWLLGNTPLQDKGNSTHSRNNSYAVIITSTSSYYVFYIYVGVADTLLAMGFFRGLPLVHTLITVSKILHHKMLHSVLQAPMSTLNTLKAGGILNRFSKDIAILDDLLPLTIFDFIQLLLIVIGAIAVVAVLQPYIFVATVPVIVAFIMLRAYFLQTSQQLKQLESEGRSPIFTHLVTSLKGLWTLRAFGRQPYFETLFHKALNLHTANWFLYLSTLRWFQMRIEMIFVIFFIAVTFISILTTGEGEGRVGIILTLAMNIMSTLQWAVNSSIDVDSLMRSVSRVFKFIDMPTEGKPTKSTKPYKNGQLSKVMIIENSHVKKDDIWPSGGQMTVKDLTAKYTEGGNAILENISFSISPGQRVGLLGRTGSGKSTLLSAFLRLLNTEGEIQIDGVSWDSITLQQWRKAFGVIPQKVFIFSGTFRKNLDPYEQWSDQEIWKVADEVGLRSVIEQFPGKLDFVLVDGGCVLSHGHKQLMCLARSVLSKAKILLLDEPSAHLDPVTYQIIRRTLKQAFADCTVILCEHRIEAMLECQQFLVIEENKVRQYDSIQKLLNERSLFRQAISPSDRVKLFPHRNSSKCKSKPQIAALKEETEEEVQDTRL

B1: SPLUNC1: human SPLUNC1, 256 amino acid secreted PLUNC protein (SEQ ID NO:1); rSPLUNC1 = V5/6His-tagged protein purified from HEK293 media (protein, listed as Homo sapiens)
chain: MFQTGGLIVFYGLLAQTMAQFGGLPVPLDQTLPLNVNPALPLSPTGLAGSLTNALSNGLLSGGLLGILENLPLLDILKPGGGTSGGLLGGLLGKVTSVIPGLNNIIDIKVTDPQLLELGLVQSPDGHRLYVTIPLGIKLQVNTPLVGASLLRLAVKLDITAEILAVRDKQERIHLVLGDCTHSPGSLQISLLDGLGPLPIQGLLDSLTGILNKVLPELVQGNVCPLVNEVLRGLDITLVHDIVNMLIHGLQFVIKV
modifications: V5/6His tag
notes: rSPLUNC1 = V5/6His-tagged protein purified from HEK293 media
- overall current with MTSET [1]: still reduced
- effect on CFTR activity ([2]; 5 ng/ml rSPLUNC1 exposure): no inhibitory effect
- effect on CFTR activity ([2]; injection of SPLUNC1 cRNA): no inhibitory effect
- spontaneous BGAR-MCA cleavage on mucosal surfaces [3]: no significant affect
